Results reported in article PMC4036194, “Crystal Structure and Molecular Imaging of the Nav Channel β3 Subunit Indicates a Trimeric Assembly*” (The Journal of Biological Chemistry, 2014).

Columns and labels:
[1] = molecular target: the molecule itself; assay: crystal structure; deglycosylated β3 Ig domain; sitting drop, 1 M sodium citrate tribasic, 0.1 M CHES/sodium hydroxide pH 9.5, 19 °C; space group P3(1)21, three molecules in the asymmetric unit; 2.5 Å
[2] = molecular target: T1, Human Nav 1.5 α subunit with a carboxyl-terminal hemagglutinin (HA) epitope tag (human, UniProt Q14524 1-2016); assay: atomic force microscopy (AFM) imaging; α subunit isolated through its HA tag from tsA 201 cells co-transfected with wild-type Myc-tagged β3; co-isolated sample on mica, imaged in air in tapping mode; conditions: both partners purified
T1 construct: Nav 1.5 sodium channel α subunit, human; ~250 kDa; Construct provided by Dr. C; source: tsA 201 cells, transfected (pcDNA3N); immunoisolated from detergent extract (anti-HA agarose, HA peptide elution); not shown: HA, C-terminal, kept
T1 sequence (Q14524 whole entry): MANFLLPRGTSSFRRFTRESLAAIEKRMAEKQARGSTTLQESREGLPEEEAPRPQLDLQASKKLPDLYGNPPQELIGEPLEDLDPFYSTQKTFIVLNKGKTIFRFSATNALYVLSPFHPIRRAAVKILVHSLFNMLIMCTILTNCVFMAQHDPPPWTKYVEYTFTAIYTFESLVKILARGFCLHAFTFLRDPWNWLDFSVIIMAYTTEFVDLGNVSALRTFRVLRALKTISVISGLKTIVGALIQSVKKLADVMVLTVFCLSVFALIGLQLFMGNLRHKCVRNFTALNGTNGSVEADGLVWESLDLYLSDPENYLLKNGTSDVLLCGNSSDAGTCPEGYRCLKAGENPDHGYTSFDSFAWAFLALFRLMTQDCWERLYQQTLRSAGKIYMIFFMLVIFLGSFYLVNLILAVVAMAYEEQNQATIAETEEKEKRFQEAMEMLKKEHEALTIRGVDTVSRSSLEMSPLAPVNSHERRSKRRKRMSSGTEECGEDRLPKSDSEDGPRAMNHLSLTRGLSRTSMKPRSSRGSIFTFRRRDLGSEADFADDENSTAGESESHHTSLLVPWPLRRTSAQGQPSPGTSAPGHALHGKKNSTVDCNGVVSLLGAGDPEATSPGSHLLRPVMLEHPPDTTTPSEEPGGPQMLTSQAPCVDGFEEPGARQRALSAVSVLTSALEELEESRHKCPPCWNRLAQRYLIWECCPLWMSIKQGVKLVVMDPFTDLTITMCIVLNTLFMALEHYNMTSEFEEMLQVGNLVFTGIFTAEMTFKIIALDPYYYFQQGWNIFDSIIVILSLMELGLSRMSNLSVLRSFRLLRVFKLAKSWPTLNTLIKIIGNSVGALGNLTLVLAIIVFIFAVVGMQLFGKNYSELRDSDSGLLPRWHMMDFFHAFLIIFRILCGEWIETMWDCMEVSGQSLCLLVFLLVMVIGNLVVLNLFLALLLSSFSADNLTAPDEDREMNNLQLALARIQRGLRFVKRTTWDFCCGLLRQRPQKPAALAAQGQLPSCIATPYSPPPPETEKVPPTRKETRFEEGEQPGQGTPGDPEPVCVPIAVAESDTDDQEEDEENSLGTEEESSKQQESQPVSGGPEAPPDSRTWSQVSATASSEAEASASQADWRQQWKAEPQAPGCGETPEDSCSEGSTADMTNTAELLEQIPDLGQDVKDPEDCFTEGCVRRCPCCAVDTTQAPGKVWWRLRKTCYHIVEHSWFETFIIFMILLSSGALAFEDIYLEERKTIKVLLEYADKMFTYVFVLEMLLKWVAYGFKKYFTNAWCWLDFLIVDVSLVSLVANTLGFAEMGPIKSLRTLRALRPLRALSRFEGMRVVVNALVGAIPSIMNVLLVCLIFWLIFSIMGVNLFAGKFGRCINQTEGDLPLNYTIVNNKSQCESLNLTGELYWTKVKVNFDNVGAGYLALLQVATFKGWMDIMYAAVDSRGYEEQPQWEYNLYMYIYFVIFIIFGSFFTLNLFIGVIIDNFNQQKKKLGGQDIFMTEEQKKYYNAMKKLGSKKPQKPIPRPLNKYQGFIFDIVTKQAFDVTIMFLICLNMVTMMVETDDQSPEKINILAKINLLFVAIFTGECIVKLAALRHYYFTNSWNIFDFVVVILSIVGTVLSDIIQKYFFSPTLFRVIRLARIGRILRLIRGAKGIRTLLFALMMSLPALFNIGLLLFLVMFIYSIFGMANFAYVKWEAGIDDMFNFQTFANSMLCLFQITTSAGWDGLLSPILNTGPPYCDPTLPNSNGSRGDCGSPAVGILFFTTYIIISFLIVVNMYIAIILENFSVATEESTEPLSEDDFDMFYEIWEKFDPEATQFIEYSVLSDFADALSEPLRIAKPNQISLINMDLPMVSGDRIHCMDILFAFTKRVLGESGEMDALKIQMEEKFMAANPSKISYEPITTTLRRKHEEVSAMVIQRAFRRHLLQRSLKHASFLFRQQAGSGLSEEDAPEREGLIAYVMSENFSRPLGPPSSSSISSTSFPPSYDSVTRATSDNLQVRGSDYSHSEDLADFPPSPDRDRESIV

[3] = molecular target: the molecule itself; assay: fluorescence photoactivated localization microscopy (FPALM) with pair correlation analysis; mEos2 fusions on the plasma membrane of fixed, transfected HEK293 cells; TIRF-PALM; 30 regions of 1 μm^2 on five cells; proteins per cluster

B1: Nav channel β3 subunit Ig domain with carboxyl-terminal hexa-His tag (domain or fragment, human)
chain: VCVEVPSETEAVQGNPMKLRCISCMKREEVEATTVVEWFYRPEGGKDFLIYEYRNGHQEVESPFQGRLQWNGSKDLQDVSITVLNVTLNDSGLYTCNVSREFEFEAHRPFVKTTRLIPLRV
modifications: disulfide bonds Cys-2–24 and Cys-21–96
notes: Nav channel β3 subunit (SCN3B), human, extracellular Ig domain; the cDNA also encodes the amino-terminal ER targeting signal, which was efficiently removed on secretion; 127 amino acids in total, theoretical mass 14.8 kDa; numbers count on: the mature protein; Deglycosylated with peptide:N-glycosidase F for crystallisation; chemically cross-linked for AUC; Surmise: the 127 residues are the mature …
stoichiometry N [1]: 3

B2: Full-length human β3 subunit with a carboxyl-terminal Myc epitope tag (natural protein, UniProt Q9NY72 23-215, looked up)
chain: FPVCVEVPSETEAVQGNPMKLRCISCMKREEVEATTVVEWFYRPEGGKDFLIYEYRNGHQEVESPFQGRLQWNGSKDLQDVSITVLNVTLNDSGLYTCNVSREFEFEAHRPFVKTTRLIPLRVTEEAGEDFTSVVSEIMMYILLVFLTLWLLIEMIYCYRKVSKAEEAAQENASDYLAIPSENKENSAVPVEE
notes: Nav channel β3 subunit (SCN3B), human, full length; runs at ~40 kDa (glycosylated) and ~30 kDa (likely unglycosylated); numbers count on: the mature protein; also called Myc-tagged β3 subunit; wild-type β3; source: tsA 201 cells, transfected (pFastBacMam); immunoisolated from detergent extract (anti-Myc agarose, Myc peptide elution); in detergent extract of co-transfected cells for co-isolation …
stoichiometry N [2]: 4

B3: Full-length β3 subunit tagged at the carboxyl terminus with mEos2 (natural protein, UniProt Q9NY72 23-215, looked up)
chain: B2 chain
notes: Nav channel β3 subunit (SCN3B), full length; also called β3-mEos2; β3-mEOS2; source: HEK293 cells, transiently transfected, on the plasma membrane of fixed cells; not shown: mEos2, C-terminal, kept
stoichiometry N [3]: 3
